Here are results for five substances from US20160145645.

Experiment in all cases: cell_activity
Data set [1] has as its system hSIRT ZFN pair (artificial). The settings on record: ZFN activity of the pair; assay conditions not given.
Data set [2] has as its system ZFN pair targeting CHO NW_003618207.1 (artificial). To be noted: indels in CHO K1 3 days post transfection, CEL-I or sequencing.
For data set [3], the system named is ZFN pair targeting CHO Neu3 (artificial). To be noted: indels in CHO K1 3 days post transfection, CEL-I or sequencing.
The test system of data set [4] is ZFN pair targeting CHO Rosa26 (artificial). The settings on record: indels in CHO K1 3 days post transfection, CEL-I or sequencing.
The test system of data set [5] is hRSK4 ZFN pair (artificial). The settings on record: ZFN activity of the pair; assay conditions not given.

“ATCTTGCCTGATTTGTAAATACAAAGTTGACTGTGAA (double strand) [hSIRT ZFN recognition sequence]” had an activity in data set [1] of 16.7%.
For the substance CHO NW_003618207.1 bp 12931-12970, the activity in data set [2] is 16%.
Regarding CHO Neu3 locus, the activity in data set [3] amounted to 41%.
For CHO Rosa26 locus, in data set [4], the activity turned out to be 31%.
“GGCTCCTACTCTGTTTGCAAGCGATGCATACATGCAA (double strand) [hRSK4 ZFN recognition sequence]” registered an activity in data set [5] of 65.7%.
